The record followed here is article PMC6211226, “Intracellular Signaling by the comRS System in Streptococcus mutans Genetic Competence” (mSphere, 2018).

For data set [1], the target named is ComR;XIP (Streptococcus mutans UA159;Streptococcus mutans) (UniProt Q8DWI6). Nature of the data set: fluorescence polarization. As to conditions: Previously described reaction buffer (ref 53; composition not given) + 1 mM EDTA, 0.05 mg/ml salmon DNA, 1 nM probe, 37 C, 20 min; ComR dialyzed into PBS pH ….
A further data set deals with ComR. Kind of data set: Fluorescence polarization competition assay with unlabeled DNA probes. In kind it is binding. As to conditions: 1.5 µM ComR, 10 µM ComS or XIP, 1 nM labeled PcomX DNA; PcomS vs PcomX. Here is the method:
FIG 5 ComS and XIP interact with ComR to bind the comX promoter. A fluorescence polarization assay testing interaction of ComS and XIP peptides with ComR and the PcomX transcriptional activation site was performed. The DNA probe was labeled with a Bodipy FL-X fluorophore. (A) Titration of ComR into a solution containing 10 µM XIP (blue) or full-length ComS (green), labeled DNA probe (1 nM), and 0.05 mg ml^−^1 salmon DNA. The negative control (black) contained no ComS or XIP peptide. (B) Competition assay in which unlabeled promoter sequence DNA was titrated into a solution containing ComR (1.5 µM), fluorescent DNA probe (1 nM), and peptide (either ComS or XIP, 10 µM). Unlabeled PcomX DNA was used with XIP (blue) and ComS (green). An unlabeled PcomS probe was also tested for its ability to compete with the fluorescent PcomX probe in the presence of XIP (red) and ComS (gold). […]
Competing unlabeled probe assays were performed with 1.5 µM ComR in the same buffer containing 1 nM PcomX fluorescent DNA and 10 µM SHP (either ComS or XIP). […] Reaction mixtures were again incubated at 37°C for 20 min before polarization readings were taken. In all FP experiments, reading was performed three times on the same plate to estimate instrument error. […]
For orientation: In fluorescence polarisation assays a small probe gives low polarisation when free and higher when bound to something large.

Data set [2] concerns the target ComS (full-length, 17 residues), synthetic (Streptococcus mutans). Kind of data set: fluorescence polarisation; ComR titrated into 1 nM Bodipy FL-X-labelled PcomX stem-loop DNA probe with 10 µM XIP or ComS, 0.05 mg/ml salmon DNA, 1 mM EDTA, 37°C 20 min; together with competition by unlabeled DNA at 1.5 µM ComR; read-out is on the DNA probe, k1 and n of the ComR/peptide complex come from the fit of a two-step cooperative model.

In data set [3] the target is XIP (sigX-inducing peptide), synthetic (Streptococcus mutans). The data set is described as above.
Data set [4] has as its target T1, ComR;ComS (Streptococcus mutans …, UniProt Q8DWI6; 1-304;, |). Nature of the data set: fluorescence polarization; 10 uM ComS; k2 of two-step model (k1 = 3.2 uM, n = 2.5), global fit with competition; not precisely determined, Text S3 gives k2 range 30-200 nM; Previously described reaction buffer (ref 53; composition not given) + 1 mM EDTA, 0.05 mg/ml salmon DNA, 1 nM probe, 37 C, 20 min; ComR dialyzed into PBS pH 7.4. As to conditions: tags: His6 tag (pET-45b(+), N-terminal) cleaved with EKMax;; chain copies: 2;2; label: 5' Bodipy FL-X; hairpin, 20 bp stem, CCCCC loop.

Data set [5] has as its target T1, ComR;ComS. Kind of data set: competition (fluorescence polarization); 1.5 uM ComR, 10 uM ComS, 1 nM labeled PcomX; affinity appears identical to PcomX; Previously described reaction buffer (ref 53; composition not given) + 1 mM EDTA, 0.05 mg/ml salmon DNA, 1 nM probe, 37 C, 20 min; ComR dialyzed into PBS pH 7.4. As to conditions: tags: His6 tag (pET-45b(+), N-terminal) cleaved with EKMax;; chain copies: 2;2; hairpin, 20 bp stem, CCCCC loop.

As a reminder, the Kd is the equilibrium constant for the complex coming apart.

{BodipyFLX} = Bodipy FL-X fluorophore label on the DNA probe

“ATGGGACATTTATGTCCTGTCCCCCACAGGACATAAATGTCCCAT [PcomX stem-loop probe]”: in data set [1], the Kd was determined as 33 nM. On to “PcomX: self-annealing stem-loop DNA, 5′-ATGGGACATTTATGTCCTGTCCCCCACAGGACATAAATGTCCCAT-3′ (5′-Bodipy FL-X in labeled probe) (DNA, 5' {BodipyFLX}, backbone and methylation of C not given here)”, for which the “affinity of unlabeled probe for ComR by competition” value in the data set on ComR is reported as “appear to have identical levels of affinity for ComR”. Regarding “ComR (native, histidine tag cleaved) (receptor)”, in data set [2], the Kd is 3200 nM and the n (order of multimerization of the ComR/peptide complex, two-step model) stood at 2.5. In addition, in data set [3], the Kd was found to be 7300 nM and the n (order of multimerization of the ComR/peptide complex, two-step model) came to 2.4. For ATGGGACATTTATGTCCTGTCCCCCACAGGACATAAATGTCCCAT (structured_DNA) [PcomX stem-loop probe], the Kd with ComR;ComS [4] turned out to be 2.2 nM. As to ACGGGACATAAATGTCCTGTCCCCCACAGGACATTTATGTCCCGT (structured_DNA) [PcomS stem-loop, unlabeled], the binding result with ComR;ComS [5] is given as “binds”.
